This experiment concerns the target SIRPg (UniProt Q9P1W8). The experiment in a line: SPR (BIAcore X-100); ratio of the affinity for SIRPa to that for SIRPg.
UniProt Q9P1W8, sequence (Q9P1W8 29-360 limits assumed): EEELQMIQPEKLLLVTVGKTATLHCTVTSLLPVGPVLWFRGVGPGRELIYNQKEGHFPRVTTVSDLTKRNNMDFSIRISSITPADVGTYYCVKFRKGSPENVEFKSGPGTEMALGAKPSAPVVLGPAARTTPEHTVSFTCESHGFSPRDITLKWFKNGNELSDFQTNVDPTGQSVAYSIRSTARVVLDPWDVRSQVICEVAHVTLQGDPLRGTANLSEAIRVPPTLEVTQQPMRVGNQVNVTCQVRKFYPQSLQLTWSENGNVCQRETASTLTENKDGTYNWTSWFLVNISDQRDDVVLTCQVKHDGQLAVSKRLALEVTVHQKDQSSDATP

B1: KWAR23 (antibody, from another filing, V domains shown)
VH: EVQLQQSGAELVKPGASVKLSCTASGFNIKDYYIHWVQQRTEQGLEWIGRIDPEDGETKYAPKFQDKATITADTSSNTAYLHLSSLTSEDTAVYYCARWGAYWGQGTLVTVSS
VL: QIVLTQSPAIMSASPGEKVTLTCSASSSVSSSYLYWYQQKPGSSPKLWIYSTSNLASGVPARFSGSGSGTSYSLTISSMEAEDAASYFCHQWSSYPRTFGAGTKLELK
As to B1, the SIRPa/SIRPg亲和力比值 was less than 1.

Values taken from patent publication CN115368455A.
